Drawing on the Immune Epitope Database (IEDB), this text covers Kd for 22 sequences.

Some targets named below: HLA-A*03:01; HLA-A*31:01; HLA-A*68:01; HLA-A*11:01; HLA-A*33:01.
Assay in all cases: IEDB peptide-MHC binding, purified MHC/competitive/radioactivity; filed as Kd, often an IC50 or EC50 that approximates it; ≥ and ≤ were set here for values at or beyond the usual limits of such assays
The next experiment concerns the target HLA-A*02:06. The note with it: source organism: Dengue virus 4 Philippines/H241/1956.
Where [1] appears, read: source organism: Vaccinia virus WR.
[2] abbreviates: source organism: Vaccinia virus Copenhagen.
The mark [3] stands for this setting: source organism: Lassa virus Josiah.
Where [4] appears, read: source organism: SARS coronavirus Tor2.

Regarding DFRDYQSYR, the Kd in the experiment with HLA-A*03:01 (setting [1]) was ≥ 78000 nM; with HLA-A*31:01 (setting [1]) it was 74.5 nM; with HLA-A*68:01 (setting [1]) it was 1020 nM; with HLA-A*11:01 (setting [1]), 13600 nM; in the experiment with HLA-A*33:01 (setting [1]), 0.837 nM.

On to STAEQLSKY, for which the Kd is 2430 nM with HLA-A*03:01 (setting [1]); ≥ 77900 nM in the experiment with HLA-A*31:01 (setting [1]); 54.9 nM with HLA-A*68:01 (setting [1]); 133 nM in the experiment with HLA-A*11:01 (setting [1]); ≥ 77700 nM with HLA-A*33:01 (setting [1]).

For the sequence LVYIFEPEK, the Kd in the experiment with HLA-A*03:01 (setting [1]) is 382 nM; in the experiment with HLA-A*31:01 (setting [1]), ≥ 21100 nM; in the experiment with HLA-A*68:01 (setting [1]) it was 130 nM; with HLA-A*11:01 (setting [1]), 24.9 nM; with HLA-A*33:01 (setting [1]) it was ≥ 77700 nM.

In the case of ILNFLDWIK, the Kd with HLA-A*03:01 (setting [2]) was 189 nM; in the experiment with HLA-A*31:01 (setting [2]) it was 427 nM; in the experiment with HLA-A*68:01 (setting [2]) it was 158 nM; in the experiment with HLA-A*11:01 (setting [2]), 155 nM; in the experiment with HLA-A*33:01 (setting [2]) it was 1290 nM.

For the sequence IISIRPRVTK, the Kd with HLA-A*03:01 (setting [1]) was determined as 55.5 nM; in the experiment with HLA-A*31:01 (setting [1]), 425 nM; in the experiment with HLA-A*68:01 (setting [1]), 180 nM; in the experiment with HLA-A*11:01 (setting [1]), 125 nM; with HLA-A*33:01 (setting [1]), 5690 nM.

On to SMTIREFPRK, for which the Kd was 10.1 nM in the experiment with HLA-A*03:01 (setting [1]); 39.6 nM with HLA-A*31:01 (setting [1]); 1250 nM with HLA-A*68:01 (setting [1]); 3.18 nM with HLA-A*11:01 (setting [1]); 6880 nM with HLA-A*33:01 (setting [1]).

Consider FLWTQSLRR, for which the Kd in the experiment with HLA-A*03:01 (setting [3]) is 40.7 nM; with HLA-A*31:01 (setting [3]), 2050 nM; in the experiment with HLA-A*68:01 (setting [3]) it was 320 nM; in the experiment with HLA-A*11:01 (setting [3]) it was 723 nM; in the experiment with HLA-A*33:01 (setting [3]), 2900 nM.

As to DFLKDDTLSK, the Kd was 15000 nM with HLA-A*03:01 (setting [1]); ≥ 70000 nM with HLA-A*31:01 (setting [1]); 10700 nM with HLA-A*68:01 (setting [1]); 5760 nM in the experiment with HLA-A*11:01 (setting [1]); 8000 nM with HLA-A*33:01 (setting [1]).

In the case of FFASFYYIWK, the Kd with HLA-A*03:01 (setting [4]) came out at 285 nM; with HLA-A*31:01 (setting [4]), 734 nM; with HLA-A*68:01 (setting [4]), 86.2 nM; with HLA-A*11:01 (setting [4]), 243 nM; in the experiment with HLA-A*33:01 (setting [4]), 60.9 nM.

For KSIENKHQR, the Kd with HLA-A*03:01 (setting [1]) is 12600 nM; in the experiment with HLA-A*31:01 (setting [1]), 1.55 nM; with HLA-A*68:01 (setting [1]) it was 100 nM; with HLA-A*11:01 (setting [1]) it was 29.4 nM; with HLA-A*33:01 (setting [1]), 1080 nM.

As to DVSLSAYIIR, the Kd in the experiment with HLA-A*03:01 (setting [1]) worked out at 2410 nM; with HLA-A*31:01 (setting [1]) it was 387 nM; in the experiment with HLA-A*68:01 (setting [1]), 240 nM; with HLA-A*11:01 (setting [1]) it was 609 nM; in the experiment with HLA-A*33:01 (setting [1]), 1120 nM.

In the case of DSDVSLIIEY, the equilibrium dissociation constant (Kd) worked out at 4820 nM with HLA-A*03:01 (setting [1]); 10300 nM with HLA-A*31:01 (setting [1]); 205 nM with HLA-A*68:01 (setting [1]); 2730 nM in the experiment with HLA-A*11:01 (setting [1]); 4690 nM with HLA-A*33:01 (setting [1]).

On to LTSMKYFVK, for which the Kd came out at 223 nM with HLA-A*03:01 (setting [4]); 74.9 nM with HLA-A*31:01 (setting [4]); 234 nM with HLA-A*68:01 (setting [4]); 19.9 nM with HLA-A*11:01 (setting [4]); 939 nM in the experiment with HLA-A*33:01 (setting [4]).

In the case of FSSLRREHIK, the Kd is 1020 nM with HLA-A*03:01 (setting [1]); 144 nM with HLA-A*31:01 (setting [1]); 94.1 nM with HLA-A*68:01 (setting [1]); 277 nM with HLA-A*11:01 (setting [1]); 17400 nM in the experiment with HLA-A*33:01 (setting [1]).

For KVIGLYGNGV, the dissociation constant Kd with HLA-A*02:06 was 12.3 nM.

Consider DILSIIDAK, for which the Kd with HLA-A*03:01 (setting [1]) is 876 nM; in the experiment with HLA-A*31:01 (setting [1]) it was ≥ 77900 nM; with HLA-A*68:01 (setting [1]), 49.7 nM; in the experiment with HLA-A*11:01 (setting [1]), 428 nM; with HLA-A*33:01 (setting [1]) it was 896 nM.

For HVCNATDFWR, the Kd in the experiment with HLA-A*03:01 (setting [1]) was determined as 6760 nM; with HLA-A*31:01 (setting [1]) it was 8.14 nM; with HLA-A*68:01 (setting [1]), 37.9 nM; in the experiment with HLA-A*11:01 (setting [1]) it was 450 nM; with HLA-A*33:01 (setting [1]), 383 nM.

For the sequence NIVTDLENR, the Kd with HLA-A*03:01 (setting [1]) is 9090 nM; with HLA-A*31:01 (setting [1]) it was 1740 nM; with HLA-A*68:01 (setting [1]) it was 21.9 nM; with HLA-A*11:01 (setting [1]), 8740 nM; with HLA-A*33:01 (setting [1]) it was 832 nM.

For WLYYNQDVQR, the Kd in the experiment with HLA-A*03:01 (setting [1]) was 1840 nM; with HLA-A*31:01 (setting [1]) it was 222 nM; with HLA-A*68:01 (setting [1]) it was 8.21 nM; with HLA-A*11:01 (setting [1]), 7910 nM; with HLA-A*33:01 (setting [1]), 161 nM.

With CIRNASKFVY, the Kd in the experiment with HLA-A*03:01 (setting [1]) was 17500 nM; with HLA-A*31:01 (setting [1]) it was ≥ 70000 nM; with HLA-A*68:01 (setting [1]), ≥ 37000 nM; with HLA-A*11:01 (setting [1]) it was 19900 nM; with HLA-A*33:01 (setting [1]), ≥ 70000 nM.

Consider RSAFNDDGIY, for which the Kd with HLA-A*03:01 (setting [1]) was ≥ 70100 nM; in the experiment with HLA-A*31:01 (setting [1]) it was ≥ 70000 nM; with HLA-A*68:01 (setting [1]), ≥ 31800 nM; with HLA-A*11:01 (setting [1]), ≥ 66400 nM; in the experiment with HLA-A*33:01 (setting [1]), ≥ 70000 nM.

As for TVENNIDFLK, the Kd with HLA-A*03:01 (setting [1]) is 2650 nM; in the experiment with HLA-A*31:01 (setting [1]), 8650 nM; in the experiment with HLA-A*68:01 (setting [1]), 19.7 nM; in the experiment with HLA-A*11:01 (setting [1]) it was 69.9 nM; with HLA-A*33:01 (setting [1]) it was 17900 nM.
